# Values of other authors, collected in publication PMC13351906.
# Target: IL-6 receptor (Homo sapiens) (UniProt P08887)
# Assay: 125I-rhIL-6 radioligand binding
# Sequence of UniProt P08887 (P08887 20-365): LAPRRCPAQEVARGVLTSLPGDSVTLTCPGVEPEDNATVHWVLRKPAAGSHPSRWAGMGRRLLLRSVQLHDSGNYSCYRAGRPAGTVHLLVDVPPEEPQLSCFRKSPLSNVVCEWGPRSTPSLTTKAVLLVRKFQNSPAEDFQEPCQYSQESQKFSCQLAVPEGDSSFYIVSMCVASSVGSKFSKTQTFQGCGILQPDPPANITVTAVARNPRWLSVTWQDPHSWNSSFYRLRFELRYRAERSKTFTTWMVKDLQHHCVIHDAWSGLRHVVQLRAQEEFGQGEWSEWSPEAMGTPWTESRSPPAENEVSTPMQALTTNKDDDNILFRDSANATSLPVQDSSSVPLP
# Sequence of IL-6 (P05231 30-212): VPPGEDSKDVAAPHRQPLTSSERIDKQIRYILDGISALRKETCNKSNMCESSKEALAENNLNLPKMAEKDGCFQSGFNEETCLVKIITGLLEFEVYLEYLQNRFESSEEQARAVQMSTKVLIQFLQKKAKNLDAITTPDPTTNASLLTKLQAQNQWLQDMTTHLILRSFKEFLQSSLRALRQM
substance,measurement,value
IL-6 (from UniProt P05231),Kd,0.44 nM
